In patent US20250066819:

Experiments:
Assay in all cases: cell_activity
[1] = test system: Type I-F3a CAST (TniQ-Cascade + TnsABC) (Vibrio cholerae HE-45)
[2] = test system: Type I-F3a CAST with Cas6 R117A Cas6 R117A (Vibrio cholerae HE-45); details: below detection
[3] = test system: Type I-F3a CAST with Cas6 R121A Cas6 R121A (Vibrio cholerae HE-45); details: below detection
[4] = test system: Type I-F3a CAST with Cas6 R125A Cas6 R125A (Vibrio cholerae HE-45); details: below detection

Substance | relative transposition efficiency (fold of native) ([1]; printed as ~10-3-fold less efficient than native crRNA) | activity [2] [cfu] | activity [3] [cfu] | activity ([1]; transposition efficiency of viable recipients (+/- 0.2), E. coli, conjugation assay, PAM not stated) [%] | activity [4] [cfu]
lacZ crRNA, canonical type I-E repeat ; lacZ target | 0.001 |  |  |  | 
lacZ crRNA, native I-F3a CAST repeat ; lacZ target |  | < 1e-07 | < 1e-07 | 1.4 | < 1e-07
